Results published in paper PMC3711486.

Molecular target: unlabeled actin filaments (chicken skeletal muscle actin) (chicken) (UniProt P68139)
Assay: other fluorescence titration

KDR with filaments 10% saturated with cofilin: 0.66 µM
KDR with filaments 20% saturated with cofilin: 0.87 µM
KDR with filaments 30% saturated with cofilin: 1.5 µM
KDR with filaments 45% saturated with cofilin: 2.5 µM
percent of Arp2/3 complex bound, filaments more than 80% saturated with cofilin: 5%
Substance: S. pombe Arp2/3 complex labeled with pyrene (pyrenyl-Arp2/3 complex) (from UniProt Q9UUJ1 1-390; O14241 1-317; Q92352 1-168)
